Reference: patent US20260159575A1

Biological target: MTBR-tau354 (human) (UniProt P10636)
Test: target engagement in human CSF, ex vivo; multiple dose 3000 mg Q4W, E2814 CSF concentrations 200-400 ng/mL; bound/(free+bound) proxy peptide

B1: antibody E2814 (antibody, human IgG1, kappa, V domains shown)
VH: EVQLLESGGGLVQPGGSLRLSCAASGYTFTTYWITWVRQAPGKGLEWVSDIYPGSSISNYNEKFKSRFTISVDNSKNTLYLQMNSLRAEDTAVYYCAREDGYDAWFAYWGQGTLVTVSS
VL: DIQMTQSPSSLSASVGDRVTITCRSSQSILHSNGNTYLEWYQQKPGKAPKLLISKVSNRFSGVPSRFSGSGSGTDFTLTISSLQPEDFATYYCFQGSHVPFTFGQGTKLEIKR
For B1, which target engagement (E2814-bound MTBR-tau as percent of total free plus bound) is on record?
The target engagement (E2814-bound MTBR-tau as percent of total free plus bound) was 70%.
